Square brackets hold non-standard residues; d marks the D form. Ends that are not written are not given here. Arg(Me2a) = CN(C)C(=N)NCCC[C@H](N)C(=O)O; Arg(Me2s) = CN=C(NC)NCCC[C@H](N)C(=O)O; Arg(Me) = CNC(=N)NCCC[C@H](N)C(=O)O
T1: SPF30 (aa 65–150) (human, UniProt O75940 65-150)
T1 construct: Splicing factor 30 kDa (SPF30, SMNDC1), human, residues 65-150, covers the Tudor domain; cloned into the pET28-MHL vector; also called Splicing factor 30 kDa; SMNDC1; source: E. coli BL21 (DE3), purified (Ni-NTA, size exclusion chromatography)
T1 sequence (looked up): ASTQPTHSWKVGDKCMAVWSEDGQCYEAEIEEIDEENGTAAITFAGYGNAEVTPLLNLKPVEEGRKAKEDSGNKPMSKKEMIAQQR

T2: SND1 (aa 650–910) (UniProt Q7KZF4 650-910)
T2 construct: SND1, residues 650-910, extended Tudor domain; also called extended Tudor domain of SND1
T2 sequence (looked up): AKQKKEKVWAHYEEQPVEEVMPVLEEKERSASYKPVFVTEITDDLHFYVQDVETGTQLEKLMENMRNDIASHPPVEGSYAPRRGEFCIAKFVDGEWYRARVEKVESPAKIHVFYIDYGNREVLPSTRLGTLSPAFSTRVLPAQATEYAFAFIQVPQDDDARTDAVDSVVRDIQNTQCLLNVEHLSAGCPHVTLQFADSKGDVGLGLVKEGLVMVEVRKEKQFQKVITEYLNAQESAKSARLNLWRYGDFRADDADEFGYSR

B1: PIWIL1_R4me2a peptide (TGRme2aARARA) (peptide)
peptide: TG[Arg(Me2a)]ARARA
notes: N-terminal GAR motif stretch of PIWIL1, R4 asymmetrically dimethylated; also called PIWIL1_R4me2a peptide of the ITC measurement; source: synthetic peptide (Tufts University Core Services)
B2: PIWIL1-R4me2s (peptide)
peptide: TG[Arg(Me2s)]ARARARGRARGQE
modifications: also: fluorescein label, position not given here
notes: N-terminal GAR motif stretch of PIWIL1, R4 symmetrically dimethylated; also called symmetrical dimethylated peptide of the PIWIL1 protein; source: synthetic peptide (Tufts University Core Services)
B3: PIWIL1-R4un (peptide)
peptide: TGRARARARGRARGQE
modifications: also: fluorescein label, position not given here
notes: N-terminal GAR motif stretch of PIWIL1, unmethylated; also called unmethylated PIWIL1 peptide; source: synthetic peptide (Tufts University Core Services)
B4: PIWIL1-R4me1 (peptide)
peptide: TG[Arg(Me)]ARARARGRARGQE
modifications: also: fluorescein label, position not given here
notes: N-terminal GAR motif stretch of PIWIL1, R4 monomethylated; also called monomethylated PIWIL1 peptide; source: synthetic peptide (Tufts University Core Services)
B5: PIWIL1-R4me2a (peptide)
peptide: TG[Arg(Me2a)]ARARARGRARGQE
modifications: also: fluorescein label, position not given here
notes: N-terminal GAR motif stretch of PIWIL1, R4 asymmetrically dimethylated; also called asymmetrical dimethylated PIWIL1 peptide; source: synthetic peptide (Tufts University Core Services)
B6: SmD3RSDMA (peptide)
peptide: GGRG[Arg(Me2s)]GRG
modifications: also: fluorescein label, position not given here
notes: GAR motif peptide named after SmD3; also called SmD3 peptide; source: synthetic peptide (Tufts University Core Services)
B7: PGM(SmB165SD) (peptide)
peptide: YPPG[Arg(Me2s)]GGPPP
modifications: also: fluorescein label, position not given here
notes: PGM motif stretch of the splicing protein SmB; also called sDMA PGM motif peptide from SmB; source: synthetic peptide (Tufts University Core Services)
B8: PGM(SmB214SD) (peptide)
peptide: PPGM[Arg(Me2s)]PPPPG
modifications: also: fluorescein label, position not given here
notes: as for B7
B9: PGM(SmB221SD) (peptide)
peptide: PPGM[Arg(Me2s)]GPPP
modifications: also: fluorescein label, position not given here
notes: as for B7
B10: H3R2me1 (peptide)
peptide: A[Arg(Me)]TKQTARKSY
modifications: also: fluorescein label, position not given here
notes: histone H3 N-terminal tail; C-terminal tyrosine printed at the end of the peptide; also called histone H3R2 peptide, monomethylated; source: synthetic peptide (Tufts University Core Services)
B11: H3R2me2a (peptide)
peptide: A[Arg(Me2a)]TKQTARKSY
modifications: also: fluorescein label, position not given here
notes: histone H3 N-terminal tail; C-terminal tyrosine printed at the end of the peptide; also called histone H3R2 peptide, asymmetrically dimethylated; source: synthetic peptide (Tufts University Core Services)
B12: H3R2me2s (peptide)
peptide: A[Arg(Me2s)]TKQTARKSY
modifications: also: fluorescein label, position not given here
notes: histone H3 N-terminal tail; C-terminal tyrosine printed at the end of the peptide; also called histone H3R2 peptide, symmetrically dimethylated; source: synthetic peptide (Tufts University Core Services)

Biological target: T3, TDRD3 (aa 520–633) (human, UniProt Q9H7E2 520-633)
T3 construct: cloned into the pET28-MHL vector; also called Tudor domain-containing protein 3; source: E. coli BL21 (DE3), purified (Ni-NTA, size exclusion chromatography)
Assay: ITC; 20 mM Tris pH 8.0, 200 mM NaCl; 25°C; one-site binding model
Details: both partners purified

B1: binds.

Biological target: T4, SMN construct covering only the Tudor domain (residues 82–147) (human, UniProt Q16637 82-147)
T4 construct: Survival motor neuron protein (SMN), human, residues 82-147, only the Tudor domain; also called SMN Tudor domain; source: E. coli BL21 (DE3), purified (Ni-NTA, size exclusion chromatography)
Assay: fluorescence polarisation; fluorescein-labeled peptides; 20 mM Tris pH 7.5, 50 mM NaCl, 1 mM DTT, 0.01% Triton X-100; 25°C; one-site binding model; Kd the average of three independent measurements
Details: both partners purified

T4 sequence (Q16637 82-147): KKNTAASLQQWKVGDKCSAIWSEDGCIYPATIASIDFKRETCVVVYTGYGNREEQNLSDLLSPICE

In the case of B2, the Kd is reported as 46 µM.

Biological target: T3, TDRD3 (aa 520–633)
Assay: as above
Details: both partners purified

B3 and B4 cannot be ordered by Kd: > 500 µM for the first, > 500 µM for the second.

B5 and B2 cannot be ordered by Kd: > 150 µM for the first, > 300 µM for the second.

B6 was tested, and the Kd was > 400 µM.

Biological target: T5, SMN (aa 80–170) (human, UniProt Q16637 80-170)
T5 construct: Survival motor neuron protein (SMN), human, residues 80-170, covers the Tudor domain; cloned into the pET28-MHL vector; also called Survival motor neuron protein; source: E. coli BL21 (DE3), purified (Ni-NTA, size exclusion chromatography)
Assay: as above
Details: both partners purified

T5 sequence (Q16637 80-170): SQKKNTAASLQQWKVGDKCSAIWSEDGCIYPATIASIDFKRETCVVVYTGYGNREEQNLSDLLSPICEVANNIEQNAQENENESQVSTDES

B3 and B4 cannot be ordered by Kd: > 300 µM for the first, > 150 µM for the second.

First: B5
Second: B2
The Kd of the first is 2.9-fold higher: 97 ± 3 µM for the first, 34 ± 2 µM for the second. The second binds more tightly here.

First: B6
Second: B7
The Kd of the first is lower: 94 ± 4 µM for the first, > 300 µM for the second.

B8 and B9 cannot be ordered by Kd: > 400 µM for the first, > 500 µM for the second.

B10 and B11 cannot be ordered by Kd: > 300 µM for the first, > 200 µM for the second.

With B12 the Kd was > 150 µM.

Biological target: T1, SPF30 (aa 65–150)
Assay: as above
Details: both partners purified

B3 and B4 cannot be ordered by Kd: > 500 µM for the first, > 500 µM for the second.

B5 and B2 cannot be ordered by Kd: > 400 µM for the first, > 200 µM for the second.

Biological target: T2, SND1 (aa 650–910)
Assay: as above
Details: both partners purified

Compared with B6, B7 is higher in Kd: 56 ± 8 µM for the first, > 500 µM for the second.

B10 and B11 cannot be ordered by Kd: > 300 µM for the first, > 300 µM for the second.

Source: publication PMC3281842, “Crystal Structure of TDRD3 and Methyl-Arginine Binding Characterization of TDRD3, SMN and SPF30” (PLoS ONE, 2012)
